# In patent US20110098212A1:
# Read-outs that look alike come from different tables or passages of the source.
# T1: chemokine receptor CCR1 (human), P32246
# T1 chain: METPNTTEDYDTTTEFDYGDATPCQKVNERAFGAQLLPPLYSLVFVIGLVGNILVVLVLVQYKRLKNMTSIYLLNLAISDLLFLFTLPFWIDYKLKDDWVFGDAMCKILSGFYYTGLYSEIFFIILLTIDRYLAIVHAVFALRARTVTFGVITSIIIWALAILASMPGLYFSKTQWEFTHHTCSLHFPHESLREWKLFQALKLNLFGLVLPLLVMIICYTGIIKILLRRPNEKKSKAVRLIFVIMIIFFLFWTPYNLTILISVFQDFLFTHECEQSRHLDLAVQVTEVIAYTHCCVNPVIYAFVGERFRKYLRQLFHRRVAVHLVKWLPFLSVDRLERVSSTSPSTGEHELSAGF
# Legend:
# [1] = target: human chemokine receptor CCR5 (human), P51681; assay: competition binding against 166 pM 125I-CCL3 on human PBMCs
# [2] = target: T1, chemokine receptor CCR1 (human), P32246; assay: cell-based or functional assay
# [3] = target: human chemokine receptor CCR5 (human), P51681; assay: cell-based or functional assay
# [4] = target: human chemokine receptor CCR5 (human), P51681
# [5] = target: chemokine receptor CCR4 (human) (UniProt P51679); assay: cell-based or functional assay
# [6] = target: chemokine receptor CCR8 (human) (UniProt P51685); assay: cell-based or functional assay
# Sequence of chemokine receptor CCR8 (human) (P51685 whole entry): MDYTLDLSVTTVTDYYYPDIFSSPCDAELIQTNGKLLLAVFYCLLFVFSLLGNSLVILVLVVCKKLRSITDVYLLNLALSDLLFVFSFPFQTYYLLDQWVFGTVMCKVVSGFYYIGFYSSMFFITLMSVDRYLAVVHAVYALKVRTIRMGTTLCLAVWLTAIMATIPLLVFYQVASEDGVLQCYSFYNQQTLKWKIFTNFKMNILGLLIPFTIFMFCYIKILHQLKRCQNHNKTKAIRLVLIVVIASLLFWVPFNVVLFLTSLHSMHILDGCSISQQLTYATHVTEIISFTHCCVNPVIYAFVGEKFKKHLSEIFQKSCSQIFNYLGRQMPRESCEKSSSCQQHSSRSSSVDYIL
# Sequence of human chemokine receptor CCR5 (human), P51681 (P51681 whole entry): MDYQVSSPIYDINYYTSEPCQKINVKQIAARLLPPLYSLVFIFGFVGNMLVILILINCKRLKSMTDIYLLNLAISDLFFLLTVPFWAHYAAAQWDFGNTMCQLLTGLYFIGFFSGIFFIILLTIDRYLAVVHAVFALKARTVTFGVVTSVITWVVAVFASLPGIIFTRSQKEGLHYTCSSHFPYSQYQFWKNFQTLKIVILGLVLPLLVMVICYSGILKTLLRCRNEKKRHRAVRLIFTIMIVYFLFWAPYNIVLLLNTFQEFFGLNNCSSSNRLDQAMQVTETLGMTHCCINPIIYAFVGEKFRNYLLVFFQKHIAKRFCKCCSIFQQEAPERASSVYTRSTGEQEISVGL
# Sequence of chemokine receptor CCR4 (human) (P51679 whole entry): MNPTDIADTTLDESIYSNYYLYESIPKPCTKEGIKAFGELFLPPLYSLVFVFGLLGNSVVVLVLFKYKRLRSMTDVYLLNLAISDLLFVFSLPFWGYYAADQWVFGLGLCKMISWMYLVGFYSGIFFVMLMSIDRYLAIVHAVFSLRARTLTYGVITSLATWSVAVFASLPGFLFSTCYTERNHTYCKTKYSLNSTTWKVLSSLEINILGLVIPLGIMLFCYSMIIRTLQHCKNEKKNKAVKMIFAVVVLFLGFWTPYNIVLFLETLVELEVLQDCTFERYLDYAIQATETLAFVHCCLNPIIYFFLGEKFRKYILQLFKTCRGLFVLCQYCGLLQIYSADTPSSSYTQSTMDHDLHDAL
binder,measurement,setting,value
"FICSSPDAELFSEKSRMSSSVLLGCLLCCMDWSAAVPV (modifications not checked) [U83A-Npep, N-terminal spliced truncated form of U83A]",IC50,[1],92 nM
same,blocking of CCL3 induced calcium flux in CCR1-CHO cells by 100 nM pre-treatment,[2],50%
same,blocking of the calcium response to 10 nM U83A in CCR1-CHO cells by 100 nM pre-treatment,[2],50%
same,inhibition of HIV-1 YU2 infection at 50 nM,[3],< 50%
same,reduction of HIV-1 JRCSF infectivity on CEM-NKR-CCR5-luc cells at 5 uM,[3],90%
same,IC50,[4],8.3 nM
"CCL22 (ligand, human, UniProt O00626 25-93, looked up) GPYGANMEDSVCCRDYVRYRLPLRVVKHFYWTSDSCPRPGVVLLTFRDKEICADPRVPWVKMILNKLSQ","chemotaxis of HUT78 cells, concentration of maximal efficacy",[5],10 nM
"CCL1/I309 (ligand, human, UniProt P22362 24-96, looked up) KSMQVPFSRCCFSFAEQEIPLRAILCYRNTSSICSNEGLIFKLKRGKEACALDTVGWVQRHRKMLRHCPSKRK","EC50, calcium mobilisation in CCR8-CHO cells",[6],3.87 nM
same,"chemotaxis of HUT78 cells, concentration of maximal efficacy",[6],1 nM
